From PMC3158780

Target: insoluble type I collagen (UniProt P02453)
Assay: co-sedimentation; batch binding to 5 mg insoluble substrate; protein 15 µg/ml in 80 µl buffer A (50 mM Tris-HCl, 10 mM CaCl2, 3 M NaCl, pH 8.0), 0°C, 60 min; supernatant after centrifugation on SDS-PAGE

percent bound: 50%
Substance: isolated CTE domain of SptA (CTE*) (domain or fragment)
